Data: publication PMC11844729

Experiments:
[1] = target: F-actin (actin filaments from rabbit skeletal muscle actin) (rabbit) (UniProt P68135); experiment: single-molecule TIRF microscopy
[2] = target: mN2G^CH (N-terminal CH domains of nesprin-2G only) (mouse); experiment: mass photometry

In the case of “mN2G^CH (N-terminal CH domains of nesprin-2G only) (domain or fragment)”, the fold residence time on F-actin against utrophin [1] is reported as greater than 2 fold and the stoichiometry N [2] is reported as 2.
